Data on 2 substances can be found in patent EP3108897A1 (F. Hoffmann-La Roche AG, dated 2016).

Where only a bound is given, the exact number is not on record here.

In experiment [1] the target is human wildtype CSF-1R (full-length) (human, UniProt P07333 20-972). Put plainly: cell-based or functional assay.
Experiment [2] has as its target human mutant CSF-1R L301S Y969F (full-length) (human) (UniProt P07333). As to the kind of experiment: cell-based or functional assay.

With “Anti CSF-1R SC 2-4A5 (Santa Cruz Biotechnology, US) (antibody)”, in experiment [1], the IC50 CSF-1R Phosphorylation (phospho/total CSF-1R ELISA on lysates of NIH3T3-CSF-1R cells stimulated with hu CSF-1) is 1.01 µg/mL and the wtCSF-1R IC30 (CellTiterGlo viability of NIH3T3-wtCSF-1R spheroids, 3 days) stood at 16.6 µg/mL. The substance also gave a Mutant CSF-1R IC30 (CellTiterGlo viability of NIH3T3-mutant CSF-1R spheroids, 3 days) in experiment [2] of 2.56 µg/mL.

In turn, “goat polyclonal anti-CSF-1R antibody ab10676 (abcam)” displayed a wtCSF-1R IC30 (CellTiterGlo viability of NIH3T3-wtCSF-1R spheroids, 3 days) in experiment [1] of 14.2 µg/mL. In experiment [2], the % inhibition of cell viability at 20 µg/ml (NIH3T3-mutant CSF-1R spheroids) stood at 0% and the Mutant CSF-1R IC30 (CellTiterGlo viability of NIH3T3-mutant CSF-1R spheroids, 3 days) was > 20 µg/mL.
